Measured values as given in publication PMC9282857, “Adaptor linked K63 di-ubiquitin activates Nedd4/Rsp5 E3 ligase” (eLife, 2022).

T1: Rsp5 HECT domain (444-809) (S. cerevisiae, UniProt P39940 444-809)
T1 construct: Rsp5 HECT domain, S. cerevisiae, residues 444-809; also called Rsp5 HECT protein; source: E. coli Rosetta (DE3), purified (TALON, Ulp1 cleavage, Superdex 200); not shown: His6, N-terminal, cleaved; SUMO, N-terminal, cleaved
T1 sequence (looked up): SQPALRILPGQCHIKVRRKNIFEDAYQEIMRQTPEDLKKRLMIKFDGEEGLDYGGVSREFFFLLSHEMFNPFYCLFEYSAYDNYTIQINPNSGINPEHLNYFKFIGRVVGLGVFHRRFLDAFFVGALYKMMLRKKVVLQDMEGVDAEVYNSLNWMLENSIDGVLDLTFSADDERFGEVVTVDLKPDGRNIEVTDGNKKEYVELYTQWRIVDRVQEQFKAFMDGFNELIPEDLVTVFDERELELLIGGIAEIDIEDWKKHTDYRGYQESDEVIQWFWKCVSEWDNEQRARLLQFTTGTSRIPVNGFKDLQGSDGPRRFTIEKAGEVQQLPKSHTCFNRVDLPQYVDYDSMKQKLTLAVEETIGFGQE

B1: mono-ubiquitin (WT) (natural protein)
chain: not shown
notes: ubiquitin, S. cerevisiae, amplified from SEY6210 genomic DNA; also called Ub-WT; mono-Ub-WT; source: E. coli Rosetta (DE3), non-tagged, purified (SP Sepharose, Superdex 200)
B2: K63-linked di-ubiquitin (complex)
chain 1: not shown
chain 2: not shown
modifications: distal ubiquitin; its C-terminus is joined by an isopeptide bond to K63 of the proximal ubiquitin | proximal ubiquitin; K63 carries the distal ubiquitin
notes: ubiquitin, S. cerevisiae; distal ubiquitin of the dimer; proximal ubiquitin of the dimer with an extra D77 after the C-terminal Gly-Gly; also called K63 di-Ub; K63-di-Ub; source: synthesised in vitro from purified Ub K63R and Ub D77 with human E1, Ubc13 and Mms2; purified (SP Sepharose, Superdex 75)
B3: K48-linked di-Ub (complex)
chain 1: not shown
chain 2: not shown
modifications: distal ubiquitin; its C-terminus is joined by an isopeptide bond to K48 of the proximal ubiquitin | proximal ubiquitin; K48 carries the distal ubiquitin
notes: ubiquitin, S. cerevisiae; distal ubiquitin of the dimer; proximal ubiquitin of the dimer with an extra D77 after the C-terminal Gly-Gly; also called K48 di-Ub; source: synthesised in vitro from purified Ub K48R and Ub D77 with human E1 and E2-25K; purified (SP Sepharose, Superdex 75)
B4: Art5 PY motifs containing region (520-586) (domain or fragment, S. cerevisiae, UniProt P53244 520-586, looked up)
chain: STTTAHLALPQPPPNYHESTNDHLMPALQPLGADSVVLTVPSYEQAQAQASASSYVTGSVPAYCDDD
notes: Art5, S. cerevisiae, residues 520-586 with the PY motifs; also called Art5 PY motif containing peptide; PY motifs of Art5; source: E. coli Rosetta (DE3), purified (Glutathione Sepharose, PreScission cleavage, Superdex 200)

What was measured:
[1] = target: T1, Rsp5 HECT domain (444-809); experiment: ITC; Affinity-ITC calorimeter, 25°C; 20 mM Tris-HCl pH 7.5, 150 mM NaCl, 1 mM DTT; independent binding model; conditions: both partners purified
[2] = target: T2, Rsp5 WW1-HECT domain (224-809) (S. cerevisiae, UniProt P39940 224-809); experiment: as above; conditions: both partners purified
T2 construct: Rsp5 WW1-HECT, S. cerevisiae, residues 224-809; also called purified WW domains from Rsp5; source: E. coli Rosetta (DE3), purified (TALON, Ulp1 cleavage, Superdex 200); not shown: His6, N-terminal, cleaved; SUMO, N-terminal, cleaved

Binder | Kd [1] [µM] | Kd [2] [µM]
B1 | ~201 | 
B2 | 33 | 
B3 | 145 | 
B4 |  | 3.1
